Laboratory results from paper doi:10.1101/471821.
No end group written: not given here.

Target: purified HLA A*03:01 class I MHC molecules
Experiment: radioligand binding

Binder: DSYIIIGVEPGQLK (not fully specified)
- IC50: 2000 nM

Binder: IIIGVEPGQL (not fully specified)
- IC50: > 5000 nM
